Source: patent US20110217317A1 (published 2011)

T1: Rhesus D antigen (human, UniProt Q02161 2-417)
T1 construct: whole, on cells; Presented on RhD-positive erythrocytes in all assays; also called RhD; RhD antigen
T1 sequence (looked up): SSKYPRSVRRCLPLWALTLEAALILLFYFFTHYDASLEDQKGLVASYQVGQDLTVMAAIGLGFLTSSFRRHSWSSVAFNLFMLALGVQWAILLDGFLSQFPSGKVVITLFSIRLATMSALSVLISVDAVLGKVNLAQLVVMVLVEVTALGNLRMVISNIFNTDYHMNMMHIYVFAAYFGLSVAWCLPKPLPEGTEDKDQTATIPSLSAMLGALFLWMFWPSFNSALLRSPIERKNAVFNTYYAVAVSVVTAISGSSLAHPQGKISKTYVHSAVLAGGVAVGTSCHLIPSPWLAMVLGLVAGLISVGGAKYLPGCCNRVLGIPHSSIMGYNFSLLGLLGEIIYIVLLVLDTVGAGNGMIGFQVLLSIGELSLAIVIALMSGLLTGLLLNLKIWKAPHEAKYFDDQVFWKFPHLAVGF

B1: RhD157.119D11 (Fab, V domains shown)
VH: EVQLVESGGGLVQPGGSLRLSCVASGFTFRSFDMNWVRQAPGKGLEWVSYINSRGSTIYYADSVKGRFTISRENAKNSLYLQMNSLRAEDTAVYYCARDLYGDYDPKSYYYYGMGVWGQGTTVTVSS
VL: EIVLTQSPATLSLSPGERATLSCRASQSVSSYLAWYQQKRGQAPRLLIFNASNRATGIPARFSGSGSGTDFTLTISSLEPEDFAVYYCQQRSSWPPMYTFGQGTKLEIKR
notes: Tested as Fab (periplasmic extract)
B2: RhD195.127A07 (Fab, V domains shown)
VH: QVQLQESGPGLVKPSQTLSLTCTVSGGSISSGSYYWSWIRQPAGKGPEWIGRIYTSGSTNYNPSLKSRLTISVDTSKNQFSLKLTSVTAADTAVYYCARAPSYYDSSGYRYWYIDLWGRGTLVTVSS
VL: DIQLTQSPSSLSASVGDRVTITCRASQNINRYLNWYQHKPGRAPELLIYAASTLRRGVPSRFSGSGSGTDFTLTISSLQPEDFATYYCQQSYSRGTFGQGTKVEIKR
notes: as for B1
B3: RhD191.119E08 (Fab, V domains shown)
VH: QVQLVESGGDLVQPGGSLRLSCAASGFTFRSYEMNWVRQAPGKGLEWVSYINSRGNTKYYADSVKGRFTISRDNAKKSLYLQMSSLRAEDTAVYYCARNLFGDYDLKSYYYNAMDVWGQGTLVTVSS
VL: EIVLTQSPGTLSSSPGERATLSCRASQSVTSRYLAWYQQKHGQAPRLLIYGTSTRATGIPDRFSGGGSQTDFTLTISRLEPEDFAVYYCQHYDDSISTYIFGPGTELEIKR
notes: as for B1
B4: RhD190.119F05 (Fab, V domains shown)
VH: EVQLVETGGGVVQPGRSLRLSCAASGFSFSNYGMHWVRQAPGKGLEWVAVIWFDGSIKYYVDSVKGRFTISRDNSKNTLYLQMNSLRAEETAIYFCARENSVLVPGTIRRRYYLDYWGQGTLVTVSS
VL: DIQLTQSPSSLSASVGDRVTITCRASQSISSYLNWYQQKPGEAPKLLIYVASTLQSGAPSRFSGSGSGTDYTLTISSLQPEDSATFYCQQTYSPPYTFGQGTKLEIKR
notes: as for B1
B5: RhD193.126G05 (Fab, V domains shown)
VH: QVQLVETGGGVVQPGRSLRLSCAASGFTFSSYGMHWVRQAPGKGLEWVAVIWYDGSNKDYADPVKGRFTISRDNSKNTLYLQMNSLRAEDTAVYYCAREIASRGYSRYLYYFDSWGQGTLVTVSS
VL: DIQMTQSPSSLSASVGDRVTITCRASQSISSYLNWYQQNPGKAPKLLIYGASNLQSGVPSRFSGSGSGTDFTLTISSLQPEDFATYYCQQSYSTLALTFGGGTKVEIKR
notes: as for B1
B6: RhD297.126E06 (Fab, V domains shown)
VH: QVQLVESGGGVVQPGRSLRLSCAASGFTFRTYGMHWVRQAPGKGLEWVAVIWYDGSNKDYADSVKGRFTISRDNSKNTLHLQMNSLRAEDTAVYYCAREIASRGYSRYLYYLDFWGQGTLVTVSS
VL: DIQLTQSPSSLSASVGDRVTITCRASQSISSYLNWYQQNPGKAPKLLIYGASNLQSGVPSRFSGSGSGTDFTLTISSLQPEDFATYYCQQSYSTLALTFGGGTKVEIKR
notes: as for B1
B7: RhD202.158E07 (Fab, V domains shown)
VH: QVQLVESGGGVVQPGRSLRLSCAASGFTFSSYGMHWVRQAPGKGLEWVAVIWFDGSNRYYGDSVKGRVTISRDNSKNTLYLRMNSLRAEDTAVYYCAREFYTRSGLWSQGYSYYMDVWGKGTTVTVSS
VL: EIVLTQSPGTLSLSPGERATLSCRASQSVSSSYLAWYQHKPGQAPRLLIYGSSNRATGIPDRFSGSGSGTDFTVTISRLEPEDFAVYYCQQYGTAPYTFGQGTKLEIKR
notes: as for B1
B8: RhD194.126G10 (Fab, V domains shown)
VH: QVTLKESGPVLVKPTETLTLTCTVSGFSLSNARMGVSWIRQPPGKALEWLAHIFSNDEKSYSTSLKSRLTISKDTSKSQVVLTMTNMDPVDTATYYCARMRLTMVRGVITYYYYSMDVWGQGTTVTVSS
VL: DIQMTQSPSSLSASVGDRVTITCRASQSISTYLNWYQQKPGKAPKLLIYAASTLQSGVPSRFSGSGSGTHFTLTISSLQREDFATYYCQQTYRTPTWTFGQGTKVEIKR
notes: as for B1
B9: RhD298.126E10 (Fab, V domains shown)
VH: QVQLVESGGGVVQPGRSLRLSCAASGFTFSSYGMHWVRQAPGKGLEWVAVIWYDGSNKYYADSVKGRFTISRDNSKNTLYLQMNSVRAEDTAVYYCARDLSTQRGYSRYYYVMDVWGQGTTVTVSS
VL: DIQMTQSPSSLSASVGDRVTITCRASQSISTYLNWYQQKPGKAPKLLISAASSLQSGVPSRFSGSGSGTDFTLTISSLQREDYAAYYCQQSYSTPPYTFGQGTKLEIKR
notes: as for B1
B10: RhD198.127F10 (Fab, V domains shown)
VH: QVQLVQSGGGVVQPGKSLRLSCAASGFTFSTYGMHWVRQAPGKGLEWVAVIWYDGSNKYYADSVKGRFTISRDTSKNTLYLQMNSVRVEDTAVYYCARDLTTQRGYSRYHYVMDVWGQGTTVTVSS
VL: DIQMTQSPSSLSASVGDRVTITCRASQSIGNYLNWYQQKPGKAPKLLISAASSLQSGVPSRFSGSGSGTDFTLTISSLHREDYATYYCQQSYSTPPYTFGQGTKLEIKR
notes: as for B1
B11: RhD196.126H11 (Fab, V domains shown)
VH: QVQLVESGGGVVQPGRSLRLSCAASGFTFSSYGMHWVRQAPGKGLEWVAVIWYDGSNKDYADSVKGRFTISRDNSKNTLYLQMNSVRAEDTAVYYCARELSTQRGYSRYHYVMDVWGQGTTVTVSS
VL: DIQMTQSPSSLSASVGDRVTITCRASQSISTYLNWYQQKPGKAPKLLIYAASTLQSGVPSRFSGSGSGTHFTLTISSLQREDFATYYCQQSYGTPTWTFGQGTKVEIKR
notes: as for B1
B12: RhD200.164G10 (Fab, V domains shown)
VH: VQLVESGGGGVVQPGRSLRLSCAASGFTFSSYGMHWVRQAPGKGLEWVAVIWYDGSNKYYADSVKGRFTISRDNSKNTLYLQMNSLRAEDTAVYYCARESTLYSSSWYRRYYYYGMDVWGQGTTVTVSS
VL: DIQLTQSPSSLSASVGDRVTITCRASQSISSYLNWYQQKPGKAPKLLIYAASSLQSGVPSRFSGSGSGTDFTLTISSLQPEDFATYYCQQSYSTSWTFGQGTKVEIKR
notes: as for B1
B13: RhD201.164H12 (Fab, V domains shown)
VH: QVQLVESGGGVVQPGRSLRLSCAASGFTFSSYAMHWVRQAPGKGLEWVAVISYDGSNKYYADSVKGRFTISRDNSKNTLYLQMNSLRAEDTAVYYCARESTLYSSSWYRRYYYYSMDVWGQGTTVTVSS
VL: EIVLTQSPATLSVSPGERATLSCRASQSVTSNLAWYQQKPGQAPRLLIYGASTRATGVPARFSGSGSGTEFSLTISSLQSEDFAVYYCQQYNNWPPIFTFGPGTKLDIKR
notes: as for B1
B14: RhD192.119G06 (Fab, V domains shown)
VH: QVQLVESGGGLVKPGGSLRLSCAASGFTFSSYAMNWVRQAPGKGLEWVSSISGTSSYIYYADSVKGRFTIFRDNAKSSVYLQMNSLRVEDTAVYYCARDRWWGMVRRVFPTYPFDYWGQGTLVTVSS
VL: DIQLTQSPSSVSASVGDRVTITCRASQGINNLLAWYQQKPGKAPKLLIYAASNLQSGVPSRFSGSGSGTDFTLTINSLQPEDFATYYCQQANSFPLTFGGGTKVEIKR
notes: as for B1
B15: RhD199.164E03 (Fab, V domains shown)
VH: QVQLVESGGGVVQPGRSLRLSCAASGFTFSSYGMHWVRQAPGKGLEWVAVIWYDGSNKYYADSVKGRFTISRDNSKNTLHLQMNSLRAEDTAVYYCAREVGFGSGWSRYYYGMDVWGQGTTVTVSS
VL: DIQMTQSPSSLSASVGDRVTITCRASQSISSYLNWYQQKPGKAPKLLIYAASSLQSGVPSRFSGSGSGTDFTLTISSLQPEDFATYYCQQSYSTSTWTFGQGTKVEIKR
notes: as for B1
B16: RhD197.127A08 (Fab, V domains shown)
VH: QVQLVESGGGVVQPGRSLRLSCAASGFTFSNYGMHWVRQAPGKGLEWVAVIWFDGSNRDYADSVKGRFTISRDNSKKTLYLQMNSLRAEDTAVYYCATELARGRLRALEYWGQGTLVTVSS
VL: QTVVTQEPSLTVSPGGTVTLTCASSTGAVTTGYYPNWFQQKPGQAPRALIYSTSKKHSWTPARFSGSLLGGKAALTLSGVQPEDEAEYYCLLFYGGAQLGVFGGGTKLTVLG
notes: Tested as Fab (periplasmic extract); lambda clone
B17: RhD207.127A11 (Fab, V domains shown)
VH: EVQLVESGGGVVQPGRSLRLSCAASGFTFSSYGMHWVRQAPGKGLEWVAVIWYDGSNKDYVDSVKGRFTISRDNSKNTLYLQMNSLRAEDTAVYYCARELAKGRLRDLDHWGQGTLVTVSS
VL: QAVVTQEPSLTVSPGGTVTLTCASSTGAVTTGYYPNWFQQKPGQAPRALVHSTSKKHSWTPARFSGSLLGGKAALTLSGVQPEDEAEYYCLLFYGGAQLGVFGGGTKLTVLG
notes: as for B1

Target: T1, Rhesus D antigen
Experiment: agglutination assay, Fab on RhD(+)/RhD(-) RBC mix
Method: After each round of panning single colonies were picked for analysis of their binding properties to red blood cells in agglutination assays. Briefly, single colonies were inoculated into 2×YT/100 μg/mL carbenicillin/1% glucose and shaken overnight at 37° C. The next day, DeepWell plates were inoculated using 900 μl 2×YT/100 μg/mL carbenicillin/0.1% glucose and 10 μl overnight culture. The plates were shaken for two hours at 37° C., before Fab induction was performed with addition of 300 μl 2×YT/100 μg/mL carbenicillin/0.25 mM IPTG per well. The plate was shaken overnight at 30° C. The following day, the bacteria were pelleted by centrifugation (3200×g, 4° C., 10 minutes), and re-suspended in 100 μl of 0.8 M NaCl, 0.2×PBS, 8 mM EDTA, and incubated for 15 minutes on ice in order to perform a periplasmic extraction of the Fab fragments. The plate was transferred to −20° C. and finally the suspension was thawed and centrifugation was performed for 10 minutes at 4° C. and 3200×g. The periplasmic extract was used in ELISA assays for analysis of Fab content and in agglutination assays to evaluate the binding potential of the individual Fab fragments. The agglutination assay was performed as follows: RhD(−) and RhD(+) RBC were mixed in a 1:1 ratio, and washed 3 times in PBS. After the final wash, the cell mix was re-suspended in 1% BSA in PBS at a density of 1% cells, 50 μl was added to each well of a 96-plate. Periplasmic extracts were added to the wells. As a positive control Rhesogamma P immunoglobulin (Aventis) was used according to the manufacturer's instructions. The plates were incubated for one hour at room temperature with gentle shaking. The cells were washed three times with PBS, before the secondary antibody was added (goat anti-human Fab/FITC conjugate, Sigma F5512) in a 1:100 dilution. The plates were left for agglutination for one hour at room temperature without shaking. Fab fragments positive in the agglutination assay was determined by visual inspection, and recorded by taking a picture. Quantization of the binding activity of the Fab fragments was performed by FACS analysis of the agglutination samples.

Binding result, binds:
B1
B2
B3
B4
B5
B6
B7
B8
B9
B10
B11
B12
B13
B14
B15
B16
B17
